Test results published in the Human Domainome abundance scans (Beltran et al. 2025).

B1: DnaJ homolog subfamily C member 2, residues 451 to 503; numbered along this chain, Q99543 (parent)
chain: SKNWSEDDLQLLIKAVNLFPAGTNSRWEVIANYMNIHSSSGVKRTAKDVIGKA

Variants of: B1
Test: abundance fitness (aPCA) (normalised: wild type 0, dead -1); higher = more abundant; growth selection in yeast, the domain comes from the species named
Conditions: Homo sapiens

Abundance fitness: each site, then its substitutions
A31: E -0.859; S -0.179; V -0.397; M -0.66; D -0.831; I -0.82; P -0.837; R -0.384; F -1.01; K -0.357; Q -0.549; N -0.768; G -0.607; Y -1.08; T 0.051; L -0.463; W -0.857; H -0.919
T23: S -0.276; L -0.221; K -0.587; D -0.165; Y -0.201; P -0.539; V -0.302; A -0.267; H -0.147; M -0.221; G -0.262; F 0.038; C -0.353; R -0.649; I -0.226; Q -0.162; E -0.325
N35: R -0.59; I -0.86; L -1.07; K -0.871; C -0.587; P -1.08; Q -0.558; G -0.646; D -0.685; W -0.897; S -0.186; V -0.815; Y -0.775; M -0.56; H -0.519; T -0.345
V29: A 0.082; G -0.026; Q 0.104; L -0.051; C -0.071; N -0.166; Y -0.166; I -0.127; E -0.103; P -0.696; F -0.32; S 0.01; R 0.043; K -0.113; W -0.082; D 0.16; H -0.096; T 0.008; M 0.078
S25: Y -0.281; N -0.384; W -0.219; D 0.062; L -0.239; F -0.272; I -0.788; Q -0.235; K -0.003; G -0.077; T -0.144; E -0.159; A -0.094; C -0.04
H37: Y -0.044
K47: A 0.054; E 0; C -0.206
R26: G -0.74; T -0.52; H -0.831; S -0.934; A -0.557
I30: T -0.987; K -0.873; F -0.635; G -0.905; E -0.955; L -0.789; M -0.535; W -0.839; V -0.019; P -0.94; R -0.951; D -0.729; S -0.947; Y -0.923; A -0.651; Q -1; N -0.999
G41: Y -0.25; C -0.103; D -0.066; N -0.143; L -0.186; K 0.001; F 0.064; H -0.129; R -0.061; P -0.114; T -0.072; I -0.119; M -0.035; A 0.089; W -0.645; E -0.151
N24: M -0.056; R -0.045; I -0.09; L -0.116; G -0.276; D 0.008; Q -0.112; H 0.118; P -0.066; F -0.101; K -0.013; T -0.024; C -0.166; W -0.279; E 0.07; A 0.14; S -0.043; V -0.068
I36: W -0.134; L 0.049; K 0.208; C 0.043; T -0.007; Q 0.079; S 0.014; P -0.994; H -0.135; F -0.116; Y -0.141; G -0.009; N 0.049
E28: P -0.627; S -0.013; M -0.44; F -0.376; V -0.259; A -0.278; Q 0.009; N -0.312; T -0.351; K -0.237; R -0.138; W -0.592; Y -0.866; D -0.089; G -0.397; C -0.49
M34: G -0.977; D -0.833; E -0.816; H -0.683; Q -0.696; R -0.963; C -0.136; I -0.011; Y -0.722; P -0.553; L -0.056; W -0.666; F -0.317; A -0.895; V 0.003
G22: S 0.002; Y -0.267; T -0.065; W -0.293; V -0.28
S38: D -0.61; E -0.609; Q -0.176; V -0.755; N -0.162; G -0.069; C -0.169; K -0.517; R -0.435; Y -1.03; L -0.86; H -0.525; T -0.116; P -0.936; A -0.224; W -1; I -1.04; F -0.822
A46: S -0.099; T -0.114; G -0.246; I -0.167; F -0.366; R -0.222; M -0.22; L -0.355; C -0.094; N -0.567; E -0.067; Y -0.305; H -0.309; Q -0.089; P -0.083; K -0.087; W -0.348
K43: F -0.179; I -0.147; M -0.146; W -0.259; C -0.06; R -0.045; P -0.209; G -0.302; A -0.133; E -0.096; S -0.153; N -0.025; L -0.067; T -0.006; D -0.015; H -0.173
V42: I 0.093; A -0.685; F -0.145
N32: L -0.315; T -0.13; E 0.061; H 0.076; K -0.083; W -0.38; D -0.016; I -0.66; Y -0.507; M -0.302; G -0.2; C -0.524; Q -0.103; R -0.095; A -0.04; F -0.542; P -0.93
S39: R 0; L -0.095; Q -0.102; V -0.158; N -0.076; W -0.183; D 0.03; H 0.05; Y -0.339; A 0.122; I -0.197; K -0.086; P 0.001; E 0.076; M -0.122; G 0.016; F -0.362
S40: K -0.302; F -0.559; P -0.52; E -0.336; L -0.306; M -0.536; H -0.125; V -0.484; W -0.646; A 0.009; C -0.217; T -0.166; Q -0.158; D -0.282; N -0.16; Y -0.504; R -0.286
T45: I -0.33
W27: N -0.581; I -0.286; G -0.138; F -0.207; C -0.261; V -0.444; R -0.791; T -0.475; L -0.597; Y -0.299; H -0.537; E -0.168; P -0.247; M -0.323; D -0.419; A -0.114; Q -0.726
Y33: G -0.981; A -0.752; W -0.073; E -0.805; M -0.882; S -0.87; R -0.865; H -0.414; P -0.938; C -0.996; K -0.568; D -0.977; I -1.02; V -0.847; L -0.914; Q -0.746; T -0.915; N -0.968
